Measured values reported in patent US12186374B2 (Sanofi-Aventis Deutschland GmbH, priority 2014, dated 2025).

Columns and labels:
[1] = test system: patients with Type 2 diabetes mellitus (T2DM); test: Patients receiving rescue therapy (Example 2); format: in vivo, human
Text: Routing measurements and central lab alerts were set up to ensure that glycemic parameters remained under thresholds values predefined for rescue therapy. If values were above these thresholds, and no explanations were found, or appropriate actions failed, or a dose >60 U was necessary to decrease glycemic parameters below the threshold values, rescue therapy was to be introduced along with IMP and metformin (if taken). Newly initiated anti-diabetic medications, or an increase from baseline in background metformin dose were considered as rescue therapy.

[2] = test system: patients with Type 2 diabetes mellitus (T2DM); test: Symptomatic hypoglycemia (Example 2)
patients with T2DM [3] = test: Standardized meal test: 2-hour glucose excursion and 2-hour PPG (Example 3); format: in vivo, human
Procedure: (§1) Patients will undergo a standardized meal challenge to assess fasting and postprandial glucose (central laboratory), as well as plasma glucose excursion.
(§2) The standardized meal contains approximately 600 kcal and is composed of 50 to 55% carbohydrate, 15 to 20% protein and 25 to 30% fat.
(§3) On the day of the standardized meal test, the patients will come to the investigational site in the morning, in fasting conditions for at least 8 hours and must not eat any food or drink, except water, before the scheduled standardized meal test. […] Patient in insulin glargine group will inject their insulin glargine at their usual injection time.
(§4) The standardized meal for all patients should be consumed within a 15-minute period. Blood for plasma glucose is drawn 5 times: • 30 minutes prior to the start of the meal and before IMP administration if the IMP is injected before breakfast; • Just before the start of the standardized meal (0 minute), • 30 minutes after the start of the standardized meal, • 60 minutes after the start of the standardized meal, • 120 minutes after the start of the standardized meal.
Similar MMRM method or analysis of covariance (ANCOVA) was applied on continuous secondary efficacy endpoints and the Cochran-Mantei-Haenszel method stratified by randomization strata was applied for categorical efficacy endpoints.

patients with T2DM [4] = test: Patients requiring rescue therapy (Example 3); format: in vivo, human
Text: Routine fasting SMPG and central lab alerts on FPG (and HbA1c after Week 12) were set up to ensure that glycemic parameters remained under predefined threshold values. If values were above predefined thresholds, and no explanations were found, or appropriate actions failed, or a dose >60 U was necessary to decrease FPG and/or HbA1c below the threshold values, rescue therapy was to be introduced along with IMP and metformin (if taken). Newly initiated anti-diabetic medications, or an increase from baseline in background metformin dose were considered as a rescue therapy.

[5] = test system: patients with Type 2 diabetes mellitus (T2DM); test: Patients with HbA1c ≤6.5% or <7% at Week 30 (Example 2); format: in vivo, human; details: mITT population
Text: Efficacy analysis was based on modified intent-to-treat (mITT) population using efficacy assessments collected during the study, including those obtained after IMP discontinuation or introduction of rescue therapy. The mITT population consisted of all randomized patients who had both a baseline assessment and at least one post-baseline assessment of any primary or secondary efficacy variables.
(§5) Similar MMRM method or ANCOVA was applied on continuous secondary efficacy endpoints and Cochran-Mantei-Haenszel method stratified by randomization strata was applied on categorical efficacy endpoints.

[6] = test system: patients with Type 2 diabetes mellitus (T2DM); test: Major cardiovascular events adjudicated by CAC (Example 2); details: on-treatment period
[7] = test system: patients with Type 2 diabetes mellitus (T2DM); test: Standardized meal test: 2-hour glucose excursion and 2-hour PPG (Example 2); format: in vivo, human
Procedure: as §1, §2, §3, §4, §5

patients with T2DM [8] = test: ALT increase reported on AE form (Example 3); details: on-treatment period
[9] = test system: patients with Type 2 diabetes mellitus (T2DM); test: Average 7-point SMPG change from baseline to Week 30 (Example 2); format: in vivo, human; details: mITT population
Text: Self-monitored plasma glucose (SMPG)”, as used herein, is in particular the “7-point Self Monitored Plasma Glucose”. “7-point Self Monitored Plasma Glucose” in particular refers to the measurement of plasma glucose seven times a day and calculation of the average plasma glucose concentration therefrom. The “7-point Self Monitored Plasma Glucose” value is in particular an average plasma glucose concentration including fasting and postprandial conditions. In particular, measurements of plasma glucose concentration are performed pre-breakfast, post-breakfast (e.g. 2-hour post-breakfast), pre-lunch, post-lunch (e.g. 2-hour post-lunch), pre-dinner, post-dinner (e.g. 2-hour post-dinner) and at bed-time.
The 7-point SMPG profile should be measured at the following 7 points: pre-prandial and 2 hours postprandial for breakfast, lunch, dinner and at bedtime. Two hours postprandial (breakfast, lunch and dinner) is defined as 2 hours after the start of the meal.
The patients are requested to perform 7-point SMPG profile measurement over a single 24-hour period on 2 Different Days in the Week Before V6 (Week 0), V15 (Week 12), and V21 (week 30, end of treatment assessment visit). All SMPG values measured on these days will be recorded in diary and transferred into the e-CRF.

[10] = test system: patients with Type 2 diabetes mellitus (T2DM); test: Patient disposition / treatment discontinuation (Example 2); format: in vivo; details: randomized population
[11] = on-treatment period, Safety population
[12] = standardized meal test, ANCOVA, mITT population
[13] = standardized meal test, mITT population
[14] = Example 2, baseline, standardized meal test

Substance: Gly(A21)-Arg(B31)-Arg(B32)-human insulin [Insulin Glargine]
- Patients who received rescue therapy, % [1]: 3.4%
- Patients who received rescue therapy, number [1]: 16 patients
- Documented (≤70 mg/dL) symptomatic hypoglycemia event rate per patient-year ([2]; Example 2): 1.22 per patient-year
- Events of severe symptomatic hypoglycemia ([2]; Example 2): 1 event
- Incidence of documented (≤70 mg/dL) symptomatic hypoglycemia ([2]; Example 2): 23.6%
- Number of symptomatic hypoglycemia events ([2]; Example 2): 338 events
- Patients reporting symptomatic hypoglycemia (protocol definition) ([2]; Example 2): 25.5%
- Symptomatic hypoglycemia events per patient-year ([2]; Example 2): 1.29 events per patient-year
- Documented symptomatic hypoglycemia (plasma glucose < 60 mg/dL [[…]]): Number of events [2, 11]: 75
- Documented symptomatic hypoglycemia (plasma glucose < 60 mg/dL [[…]]): Number of events per patient year [2, 11]: 0.29 per patient year
- Documented symptomatic hypoglycemia (plasma glucose < 60 mg/dL [[…]]): Number of patients with events [2, 11]: 50 (10.7%) n (%)
- Documented symptomatic hypoglycemia (plasma glucose < 60 mg/dL [[…]]): Number of patients with events per patient year [2, 11]: 0.19 per patient year
- Documented symptomatic hypoglycemia (plasma glucose ≤ 70 mg/dL [[…]]): Number of events [2, 11]: 321
- Documented symptomatic hypoglycemia (plasma glucose ≤ 70 mg/dL [[…]]): Number of events per patient year [2, 11]: 1.22 per patient year
- Documented symptomatic hypoglycemia (plasma glucose ≤ 70 mg/dL [[…]]): Number of patients with events [2, 11]: 110 (23.6%) n (%)
- Documented symptomatic hypoglycemia (plasma glucose ≤ 70 mg/dL [[…]]): Number of patients with events per patient year [2, 11]: 0.42 per patient year
- Probable symptomatic hypoglycemia: Number of events [2, 11]: 16
- Probable symptomatic hypoglycemia: Number of events per patient year [2, 11]: 0.06 per patient year
- Probable symptomatic hypoglycemia: Number of patients with events [2, 11]: 12 (2.6%) n (%)
- Probable symptomatic hypoglycemia: Number of patients with events per patient year [2, 11]: 0.05 per patient year
- Severe symptomatic hypoglycemia: Number of events [2, 11]: 1
- Severe symptomatic hypoglycemia: Number of events per patient year [2, 11]: <0.01 per patient year
- Severe symptomatic hypoglycemia: Number of patients with events [2, 11]: 1 (0.2%) n (%)
- Severe symptomatic hypoglycemia: Number of patients with events per patient year [2, 11]: <0.01 per patient year
- Symptomatic hypoglycemia: Number of events [2, 11]: 338
- Symptomatic hypoglycemia: Number of events per patient year [2, 11]: 1.29 per patient year
- Symptomatic hypoglycemia: Number of patients with events [2, 11]: 119 (25.5%) n (%)
- Symptomatic hypoglycemia: Number of patients with events per patient year [2, 11]: 0.45 per patient year
- 2-hour PPG, LS mean change (patients with T2DM [3]; Example 3): -1.39 mmol/L
- 2-hour glucose excursion, LS mean change from baseline to Week 30 (patients with T2DM [3]; Example 3, standardized liquid breakfast meal): -0.47 mmol/L
- 2-hour plasma glucose excursion, change from baseline to Week 30 (LOCF), LS Mean (SE) (patients with T2DM [3]; [12]): −0.47 (0.274) mmol/L
- 2-hour postprandial plasma glucose change from baseline to Week 30 (LOCF), LS Mean (SE) (patients with T2DM [3]; [12]): −1.39 (0.310) mmol/L
- 2-hour plasma glucose excursion at Week 30 (LOCF), Mean (SD) (patients with T2DM [3]; [13]): 6.71 (3.34) mmol/L
- 2-hour plasma glucose excursion at Week 30 (LOCF), Median (patients with T2DM [3]; [13]): 6.40 mmol/L
- 2-hour plasma glucose excursion, change from baseline to Week 30 (LOCF), Mean (SD) (patients with T2DM [3]; [13]): −0.44 (3.34) mmol/L
- 2-hour plasma glucose excursion, change from baseline to Week 30 (LOCF), Median (patients with T2DM [3]; [13]): -0.30 mmol/L
- 2-hour postprandial plasma glucose at Week 30 (LOCF), Mean (SD) (patients with T2DM [3]; [13]): 13.41 (3.83) mmol/L
- 2-hour postprandial plasma glucose at Week 30 (LOCF), Median (patients with T2DM [3]; [13]): 13.10 mmol/L
- 2-hour postprandial plasma glucose change from baseline to Week 30 (LOCF), Mean (SD) (patients with T2DM [3]; [13]): −1.56 (4.20) mmol/L
- 2-hour postprandial plasma glucose change from baseline to Week 30 (LOCF), Median (patients with T2DM [3]; [13]): -1.50 mmol/L
- Patients who received rescue therapy, % (patients with T2DM [4]): 6.0%
- Patients who received rescue therapy, number (patients with T2DM [4]): 22 patients
- % of patients with HbA1c ≤[…] at Week 30 [5]: (39.5%)
- Number of patients with HbA1c ≤[…] at Week 30 [5]: 184 patients
- % of patients with HbA1c ≤[…] at Week 30 ([5]; listed as insulin glargine): 39.5%
- TEAEs adjudicated as major cardiovascular events by CAC, % of patients ([6]; Example 2): 1.5%
- TEAEs adjudicated as major cardiovascular events by CAC, number of patients ([6]; Example 2): 7 patients
- Major cardiovascular events by CAC: Cardiovascular death ([6]; Safety population): 2 (0.4%) n(%)
- Major cardiovascular events by CAC: Coronary revascularization procedure ([6]; Safety population): 1 (0.2%) n(%)
- Major cardiovascular events by CAC: Hospitalization for heart failure ([6]; Safety population): 2 (0.4%) n(%)
- Major cardiovascular events by CAC: Hospitalization for unstable angina ([6]; Safety population): 1 (0.2%) n(%)
- Major cardiovascular events by CAC: Non-fatal myocardial infarction ([6]; Safety population): 0 n(%)
- Major cardiovascular events by CAC: Non-fatal stroke ([6]; Safety population): 1 (0.2%) n(%)
- Patients with events adjudicated as major cardiovascular events by CAC: Any ([6]; Safety population): 7 (1.5%) n(%)
- 2-hour plasma glucose excursion, change from baseline to Week 30 (LOCF), LS Mean (SE) ([7]; ANCOVA, mITT population): −0.18 (0.157) mmol/L
- 2-hour PPG change from baseline to Week 30 (LOCF) Mean (SD) ([7]; Example 2): −3.26 (3.54) mmol/L
- 2-hour PPG change from baseline to Week 30 (LOCF) Median ([7]; Example 2): -3.35 mmol/L
- 2-hour PPG change from baseline to Week 30 (LOCF) LS Mean (SE) ([7]; Example 2, ANCOVA): −3.31 (0.178) mmol/L
- 2-hour PPG change from baseline to Week 30 (LOCF) LS Mean (SE) ([7]; Example 2, ANCOVA, listed as insulin glargine): -3.31 mmol/L
- 2-hour postprandial plasma glucose Week 30 (LOCF) Mean (SD) ([7]; Example 2, Week 30 (LOCF)): 11.35 (3.12) mmol/L
- 2-hour postprandial plasma glucose Week 30 (LOCF) Median ([7]; Example 2, Week 30 (LOCF)): 11.20 mmol/L
- 2-hour glucose excursion, LS mean change ([7]; Example 2, baseline to Week 30, standardized liquid breakfast meal): -0.18 mmol/L
- 2-hour postprandial plasma glucose Baseline Mean (SD) [7, 14]: 14.61 (3.64) mmol/L
- 2-hour postprandial plasma glucose Baseline Median [7, 14]: 14.50 mmol/L
- 2-hour plasma glucose excursion, Week 30 (LOCF), Mean (SD) [7, 13]: 4.80 (2.90) mmol/L
- 2-hour plasma glucose excursion, Week 30 (LOCF), Median [7, 13]: 4.70 mmol/L
- 2-hour plasma glucose excursion, change from baseline to Week 30 (LOCF), Mean (SD) [7, 13]: −0.22 (2.86) mmol/L
- 2-hour plasma glucose excursion, change from baseline to Week 30 (LOCF), Median [7, 13]: -0.10 mmol/L
- Patients with AE of ALT increase (patients with T2DM [8]; Example 3): 2 patients
- % of patients with events reported on the AE form for ALT increase: Alanine aminotransferase increased (patients with T2DM [8]; PT, Safety population): 0.5%
- Number of patients with events reported on the AE form for ALT increase: Alanine aminotransferase increased (patients with T2DM [8]; PT, Safety population): 2
- Number of patients with events reported on the AE form for ALT increase: Hepatic enzyme increased (patients with T2DM [8]; PT, Safety population): 0
- % of patients with events reported on the AE form for ALT increase: Any (patients with T2DM [8]; Safety population): 0.5%
- Number of patients with events reported on the AE form for ALT increase: Any (patients with T2DM [8]; Safety population): 2
- Average of 7-point SMPG, change from baseline to Week 30, LS Mean (SE) ([9]; MMRM): −2.66 (0.084) mmol/L
- Average of 7-point SMPG, Week 30, Mean (SD) [9]: 7.75 (1.49) mmol/L
- Average of 7-point SMPG, Week 30, Median [9]: 7.49 mmol/L
- Status at last study contact: Dead, % [10]: 0.9%
- Status at last study contact: Dead, number of patients [10]: 4 patients
- Study treatment discontinuation due to adverse event, % [10]: 1.9%
- Study treatment discontinuation due to adverse event, number of patients [10]: 9 patients
- Study treatment discontinuation due to lack of efficacy, number of patients [10]: 0 patients
